Measured values: paper doi:10.1101/2020.12.18.423418

Molecular target: SARS-CoV-2 S1 protein containing a C-terminal His-tag (Acro; S1N-C52H3) (SARS-CoV-2) (UniProt P0DTC2)
Test: flow cytometry on cells

**Q.** Which percent reduction of S1 binding to ACE2 on cells at 10 μg/ml rfhSP-D does the source give for “recombinant fragment of human surfactant protein D (rfhSP-D) (from UniProt P35247 199-375) (domain or fragment)” here?
**A.** Its percent reduction of S1 binding to ACE2 on cells at 10 μg/ml rfhSP-D is 35%.
